Molecular target: native CTF cleaved from full-length rCav2.1 proteins
Assay: SDS-PAGE under mildly denaturing conditions with immunoblot

stoichiometry N: 2
Substance: native CTF cleaved from full-length rCav2.1 proteins
